The results in this text go back to the Human Domainome abundance scans (Beltran et al. 2025).

Sequences and labels used below:
B1: Peripheral plasma membrane protein CASK, residues 488 to 569; numbered along this chain, O14936 (parent)
chain: VRLVQFQKNTDEPMGITLKMNELNHCIVARIMHGGMIHRQGTLHVGDEIREINGISVANQTVEQLQKMLREMRGSITFKIVP

± gives the uncertainty stated by the source.

In this data set the parent is B1. In words: abundance fitness (aPCA) (normalised: wild type 0, dead -1); higher = more abundant; growth selection in yeast, the domain comes from the species named. The settings on record: Homo sapiens.
Turning to H44Q, the abundance fitness was -0.006 ± 0.03.

Turning to H44T, the abundance fitness is -0.039 ± 0.029.

For the variant H44P, the abundance fitness is -0.917 ± 0.063.

In the case of H44D, the abundance fitness was -0.021 ± 0.031.

Consider N59F, for which the abundance fitness is -0.016 ± 0.04.

N59S: the abundance fitness was -0.045 ± 0.029.

In the case of N59H, the abundance fitness is -0.006 ± 0.044.

Regarding N59Q, the abundance fitness is -0.09 ± 0.04.

With D11G, the abundance fitness is -0.034 ± 0.029.

Turning to D11H, the abundance fitness stood at 0.075 ± 0.077.

For D11N, the abundance fitness amounted to 0.08 ± 0.05.

Regarding D11C, the abundance fitness is -0.136 ± 0.057.

As for D11M, the abundance fitness was -0.11 ± 0.06.

Turning to G54H, the abundance fitness is -0.076 ± 0.11.

With G54W, the abundance fitness is -0.549 ± 0.054.

For the variant G54V, the abundance fitness is -0.797 ± 0.063.

For G54R, the abundance fitness was -0.193 ± 0.028.

For T17G, the abundance fitness is -0.023 ± 0.021.

As for T17M, the abundance fitness was -0.046 ± 0.029.

For the variant T17V, the abundance fitness was 0.003 ± 0.023.

I31Y: the abundance fitness is -0.579 ± 0.12.

I31Q: the abundance fitness was -1.04 ± 0.13.

As to I31N, the abundance fitness was -0.71 ± 0.14.

For the variant I31A, the abundance fitness is -0.647 ± 0.059.

For I31W, the abundance fitness is -0.847 ± 0.082.

I31E: the abundance fitness was -0.777 ± 0.078.

For the variant G41F, the abundance fitness is -0.618 ± 0.061.

For G41D, the abundance fitness was -0.065 ± 0.033.

Consider G41L, for which the abundance fitness is -0.424 ± 0.029.

Regarding G41W, the abundance fitness was -0.829 ± 0.048.

G41R: the abundance fitness was -0.127 ± 0.021.

For the variant G41T, the abundance fitness is -0.033 ± 0.03.

Turning to V4R, the abundance fitness was -0.265 ± 0.023.

For the variant M68L, the abundance fitness is -0.032 ± 0.024.

On to M68W, for which the abundance fitness is -0.049 ± 0.025.

As for M68E, the abundance fitness is -0.038 ± 0.029.

As for M68A, the abundance fitness was -0.02 ± 0.025.

As for V28W, the abundance fitness was -0.931 ± 0.06.

Consider V28G, for which the abundance fitness was -0.992 ± 0.045.

As for V28I, the abundance fitness came out at 0.03 ± 0.041.

With V28D, the abundance fitness is -0.898 ± 0.096.

On to Q40S, for which the abundance fitness is -0.043 ± 0.023.

For the variant Q40M, the abundance fitness is -0.055 ± 0.026.

As for Q40P, the abundance fitness was -0.552 ± 0.04.

Regarding Q40L, the abundance fitness is -0.06 ± 0.022.

On to Q40G, for which the abundance fitness is -0.097 ± 0.023.

In the case of V57F, the abundance fitness is -0.42 ± 0.053.

For the variant V57R, the abundance fitness was -0.973 ± 0.038.

Consider V57D, for which the abundance fitness is -0.915 ± 0.076.

On to V57K, for which the abundance fitness was -0.745 ± 0.052.

Consider V57P, for which the abundance fitness is -0.041 ± 0.027.

Turning to R39S, the abundance fitness is -0.047 ± 0.026.

Regarding R39D, the abundance fitness was -0.096 ± 0.034.

Turning to R39A, the abundance fitness is -0.035 ± 0.022.

R39M: the abundance fitness is -0.135 ± 0.033.

On to R39N, for which the abundance fitness was determined as 0.04 ± 0.037.

In the case of R39L, the abundance fitness was -0.138 ± 0.026.

Regarding G15P, the abundance fitness was -0.266 ± 0.037.

For the variant G15Y, the abundance fitness was -0.776 ± 0.073.

Take G15S: the abundance fitness was -0.493 ± 0.035.

For G15D, the abundance fitness is -0.276 ± 0.037.

For G15W, the abundance fitness is -0.374 ± 0.048.

As for H25D, the abundance fitness was -0.163 ± 0.037.

Turning to H25M, the abundance fitness is -0.019 ± 0.031.

Regarding K19G, the abundance fitness stood at 0.025 ± 0.023.

For K19R, the abundance fitness was -0.017 ± 0.023.

With K19L, the abundance fitness was -0.026 ± 0.028.

Consider K19D, for which the abundance fitness is -0.016 ± 0.035.

With T77N, the abundance fitness was -0.096 ± 0.065.

As to T77G, the abundance fitness is -0.248 ± 0.047.

In the case of T77R, the abundance fitness was -0.088 ± 0.035.

As to T77E, the abundance fitness was -0.034 ± 0.059.

In the case of T77I, the abundance fitness is -0.026 ± 0.069.

G34M: the abundance fitness was -0.259 ± 0.057.

Turning to G34T, the abundance fitness is -0.126 ± 0.054.

Consider G34Q, for which the abundance fitness was -0.151 ± 0.057.

Consider L18E, for which the abundance fitness is -0.909 ± 0.096.

L18P: the abundance fitness was -1.2 ± 0.22.

Consider L18I, for which the abundance fitness is -0.055 ± 0.098.

Turning to L18D, the abundance fitness is -1.13 ± 0.23.

As for L18H, the abundance fitness is -0.877 ± 0.28.

Regarding L18R, the abundance fitness is -0.986 ± 0.07.

Turning to Q5W, the abundance fitness was -0.106 ± 0.028.

As for Q5R, the abundance fitness was determined as 0.074 ± 0.023.

With Q5I, the abundance fitness is -0.068 ± 0.03.

As for Q5S, the abundance fitness amounted to 0.075 ± 0.024.

As for C26M, the abundance fitness is -0.076 ± 0.033.

On to C26I, for which the abundance fitness was 0.032 ± 0.05.

With C26W, the abundance fitness was -0.031 ± 0.026.

Turning to C26D, the abundance fitness is -0.868 ± 0.091.

Turning to C26L, the abundance fitness is -0.083 ± 0.026.

C26K: the abundance fitness is -0.202 ± 0.04.

Regarding C26P, the abundance fitness is 0.015 ± 0.029.

For L23P, the abundance fitness was -0.073 ± 0.036.

Consider L23T, for which the abundance fitness was 0.044 ± 0.037.

For the variant L23R, the abundance fitness is 0.046 ± 0.022.

As for R30K, the abundance fitness was found to be 0.069 ± 0.047.

Regarding R30M, the abundance fitness is -0.112 ± 0.046.

Consider R30I, for which the abundance fitness is -0.372 ± 0.087.

R30S: the abundance fitness was -0.007 ± 0.033.

R30Q: the abundance fitness was -0.013 ± 0.045.

Turning to R30A, the abundance fitness was found to be 0.008 ± 0.034.

For the variant I55S, the abundance fitness was -0.033 ± 0.026.

Turning to I55E, the abundance fitness is 0.026 ± 0.025.

For the variant I55D, the abundance fitness was -0.035 ± 0.039.

As to I55H, the abundance fitness was -0.04 ± 0.041.

For M20R, the abundance fitness was -0.034 ± 0.024.

In the case of M20V, the abundance fitness is -0.046 ± 0.03.

Regarding M20W, the abundance fitness is -0.044 ± 0.032.

M20D: the abundance fitness was -0.489 ± 0.068.

With M20L, the abundance fitness is -0.016 ± 0.032.

For H33Q, the abundance fitness is 0.045 ± 0.036.

Turning to H33W, the abundance fitness was -0.16 ± 0.034.

H33S: the abundance fitness was -0.008 ± 0.029.

On to H33Y, for which the abundance fitness was -0.107 ± 0.053.

With H33P, the abundance fitness came to 0.009 ± 0.033.

Regarding E63F, the abundance fitness is -0.023 ± 0.06.

As for E63C, the abundance fitness was -0.08 ± 0.041.

Regarding E63Y, the abundance fitness was -0.079 ± 0.071.

E63N: the abundance fitness is -0.043 ± 0.065.

As to H38D, the abundance fitness is -0.043 ± 0.035.

For the variant H38W, the abundance fitness was -0.029 ± 0.026.

Regarding H38A, the abundance fitness is -0.028 ± 0.024.

On to H38G, for which the abundance fitness was -0.091 ± 0.02.

Turning to H38K, the abundance fitness is -0.138 ± 0.037.

On to H38T, for which the abundance fitness is -0.313 ± 0.04.

Consider H38C, for which the abundance fitness is -0.129 ± 0.036.

With H38N, the abundance fitness is -0.138 ± 0.055.

With H38L, the abundance fitness is -0.348 ± 0.03.

On to I16A, for which the abundance fitness is -0.115 ± 0.035.

On to I16N, for which the abundance fitness is -0.654 ± 0.18.

For I37E, the abundance fitness is -0.378 ± 0.032.

Consider I37A, for which the abundance fitness worked out at 0.019 ± 0.025.

Turning to K67M, the abundance fitness is -0.029 ± 0.034.

Consider K67A, for which the abundance fitness is -0.022 ± 0.028.

In the case of K67W, the abundance fitness is -0.119 ± 0.032.

Regarding E22T, the abundance fitness was -0.021 ± 0.038.

With E22D, the abundance fitness amounted to 0.031 ± 0.036.

As to E22G, the abundance fitness came out at 0.022 ± 0.023.

As for L69W, the abundance fitness was -0.308 ± 0.029.

For the variant L69H, the abundance fitness was -0.777 ± 0.097.

Consider L69D, for which the abundance fitness was -0.73 ± 0.073.

For the variant L69E, the abundance fitness is -0.537 ± 0.058.

With N24K, the abundance fitness was -0.032 ± 0.029.

In the case of N24G, the abundance fitness worked out at 0.023 ± 0.019.

As to G74C, the abundance fitness is -0.5 ± 0.066.

G74F: the abundance fitness was -0.51 ± 0.078.

Take G74L: the abundance fitness was -0.842 ± 0.044.

Regarding G74T, the abundance fitness was -0.4 ± 0.04.

Turning to G74I, the abundance fitness was -1.13 ± 0.2.

Regarding I27S, the abundance fitness was -0.17 ± 0.024.

As for I27Y, the abundance fitness turned out to be 0.007 ± 0.037.

As to I27P, the abundance fitness is -0.883 ± 0.067.

In the case of I27V, the abundance fitness was -0.045 ± 0.023.

As for A58S, the abundance fitness was -0.035 ± 0.028.

For the variant A58E, the abundance fitness amounted to 0.017 ± 0.027.

In the case of A58K, the abundance fitness worked out at 0.053 ± 0.035.

Regarding A58W, the abundance fitness is -0.104 ± 0.028.

As to E51F, the abundance fitness is -0.441 ± 0.23.

E51C: the abundance fitness is -0.34 ± 0.25.

Turning to V62S, the abundance fitness is 0.003 ± 0.026.

Consider V62E, for which the abundance fitness amounted to 0.015 ± 0.025.

For V62I, the abundance fitness is -0.025 ± 0.042.

As to V62K, the abundance fitness was -0.114 ± 0.032.

In the case of V62A, the abundance fitness is -0.007 ± 0.023.

As to V62T, the abundance fitness is -0.007 ± 0.03.

As for V62L, the abundance fitness is -0.018 ± 0.025.
